Data as given in US20110098217A1 (INDIANA UNIVERSITY RESEARCH AND TECHNOLOGY, published 2011).
Read-outs that look alike come from different tables or passages of the source. Numbered stars: 1 amine (or outer) side, 2 acyl side, 3 side chain; on linkers, the order of the positions; unused ones are H or OH. Bridge positions count the residues as written; N and C are the ends. Square brackets hold non-standard residues; d marks the D form. Ends that are not written are not given here. CSA‑2 = Cys(S-CH2CH2COOH), S-(2-carboxyethyl)-L-cysteine, O=C([C@H](CSCCC(=O)[*:3])N[*:1])[*:2]; CSA‑1 = Cys(S-CH2COOH), S-carboxymethyl-L-cysteine, O=C([C@H](CSCC(=O)[*:3])N[*:1])[*:2]; Abu(4-SO3H) = N[C@@H](CCS(=O)(=O)O)C(=O)O; PhLac = O=C(O)[C@@H](O)Cc1ccccc1; NSG‑1 = not defined here; NSG‑2 = not defined here

What was measured:
[1] = target: human glucagon receptor (human) (UniProt P47871); assay: cell-based or functional assay
Sequence of human glucagon receptor (human) (P47871 26-477): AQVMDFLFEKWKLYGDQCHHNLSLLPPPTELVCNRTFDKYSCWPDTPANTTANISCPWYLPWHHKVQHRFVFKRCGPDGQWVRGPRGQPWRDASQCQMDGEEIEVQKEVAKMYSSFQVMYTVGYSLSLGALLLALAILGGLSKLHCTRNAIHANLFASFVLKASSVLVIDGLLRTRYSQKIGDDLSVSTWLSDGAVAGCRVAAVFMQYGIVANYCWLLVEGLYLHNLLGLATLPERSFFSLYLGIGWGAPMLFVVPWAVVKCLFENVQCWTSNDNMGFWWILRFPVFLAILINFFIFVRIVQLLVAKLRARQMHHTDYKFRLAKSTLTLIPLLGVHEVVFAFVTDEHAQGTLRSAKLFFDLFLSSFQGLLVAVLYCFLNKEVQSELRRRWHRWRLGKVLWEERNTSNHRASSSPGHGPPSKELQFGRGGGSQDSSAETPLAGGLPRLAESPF

human glucagon receptor [2] = target: T1, human glucagon receptor (human, UniProt P47871 26-477); assay: cell-based or functional assay
T1 sequence (P47871 26-477): as above

human glucagon receptor [3] = target: T1, human glucagon receptor; assay: cell-based or functional assay; remark: listed apart in the source
human glucagon receptor [4] = target: T1, human glucagon receptor; assay: SPA competition vs 125I-glucagon, receptor membranes
human glucagon receptor [5] = target: T1, human glucagon receptor; assay: cell-based or functional assay; remark: listed apart in the source
human glucagon receptor [6] = target: T1, human glucagon receptor; assay: cell-based or functional assay; remark: listed apart in the source
human glucagon receptor [7] = target: T1, human glucagon receptor; assay: cell-based or functional assay; remark: listed apart in the source
human glucagon receptor [8] = target: T1, human glucagon receptor; assay: cell-based or functional assay; remark: listed apart in the source
human glucagon receptor [9] = target: T1, human glucagon receptor; assay: cell-based or functional assay; remark: listed apart in the source
human glucagon receptor [10] = target: T1, human glucagon receptor; assay: SPA competition vs 125I-glucagon, receptor membranes; remark: listed apart in the source
[11] = target: human GLP-1 receptor (human) (UniProt P43220); assay: cell-based or functional assay
Sequence of human GLP-1 receptor (human) (P43220 24-463): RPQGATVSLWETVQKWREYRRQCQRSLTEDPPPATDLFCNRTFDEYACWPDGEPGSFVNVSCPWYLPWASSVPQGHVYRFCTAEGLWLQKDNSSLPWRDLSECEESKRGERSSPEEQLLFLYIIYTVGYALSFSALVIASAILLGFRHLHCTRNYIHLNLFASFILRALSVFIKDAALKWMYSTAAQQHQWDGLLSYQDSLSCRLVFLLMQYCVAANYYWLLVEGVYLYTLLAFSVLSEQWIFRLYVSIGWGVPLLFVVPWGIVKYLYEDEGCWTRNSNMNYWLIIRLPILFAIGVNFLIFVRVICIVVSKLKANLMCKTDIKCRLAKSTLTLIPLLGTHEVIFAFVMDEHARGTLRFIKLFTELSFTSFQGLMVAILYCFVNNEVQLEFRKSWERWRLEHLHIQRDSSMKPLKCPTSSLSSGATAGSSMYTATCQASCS

[12] = target: human glucagon receptor (human) (UniProt P47871); assay: cell-based or functional assay; remark: listed apart in the source
human GLP-1 receptor [13] = target: T2, human GLP-1 receptor (human, UniProt P43220 24-463); assay: cell-based or functional assay
human GLP-1 receptor [14] = target: T2, human GLP-1 receptor; assay: cell-based or functional assay; remark: listed apart in the source

## [PLA6, E9, E16K20(Lactam)]G(6-39) (peptide)
[1]
  Glucagon antagonism IC50 (inhibit 0.2-0.8 nM glucagon): 20.5 nM

B1: [PLA^5, E^9]Glucagon(aa5-29)-NH2 (peptide)
peptide: [PhLac]FTSEYSKYLDSRRAQDFVQWLMNT-NH2
modifications: N-terminus assumed
SMILES: CSCC[C@H](NC(=O)[C@H](CC(C)C)NC(=O)[C@H](Cc1c[nH]c2ccccc12)NC(=O)[C@H](CCC(N)=O)NC(=O)[C@@H](NC(=O)[C@H](Cc1ccccc1)NC(=O)[C@H](CC(=O)O)NC(=O)[C@H](CCC(N)=O)NC(=O)[C@H](C)NC(=O)[C@H](CCCNC(=N)N)NC(=O)[C@H](CCCNC(=N)N)NC(=O)[C@H](CO)NC(=O)[C@H](CC(=O)O)NC(=O)[C@H](CC(C)C)NC(=O)[C@H](Cc1ccc(O)cc1)NC(=O)[C@H](CCCCN)NC(=O)[C@H](CO)NC(=O)[C@H](Cc1ccc(O)cc1)NC(=O)[C@H](CCC(=O)O)NC(=O)[C@H](CO)NC(=O)[C@@H](NC(=O)[C@H](Cc1ccccc1)NC(=O)[C@@H](O)Cc1ccccc1)[C@@H](C)O)C(C)C)C(=O)N[C@@H](CC(N)=O)C(=O)N[C@H](C(N)=O)[C@@H](C)O
Human glucagon receptor [2]
  IC50 (cAMP, inhibit 0.8 mM Glucagon): 328 nM

B2: [PLA^4, E^9]Glucagon(aa4-29)-NH2 (peptide)
peptide: [PhLac]TFTSEYSKYLDSRRAQDFVQWLMNT-NH2
modifications: N-terminus assumed
SMILES: CSCC[C@H](NC(=O)[C@H](CC(C)C)NC(=O)[C@H](Cc1c[nH]c2ccccc12)NC(=O)[C@H](CCC(N)=O)NC(=O)[C@@H](NC(=O)[C@H](Cc1ccccc1)NC(=O)[C@H](CC(=O)O)NC(=O)[C@H](CCC(N)=O)NC(=O)[C@H](C)NC(=O)[C@H](CCCNC(=N)N)NC(=O)[C@H](CCCNC(=N)N)NC(=O)[C@H](CO)NC(=O)[C@H](CC(=O)O)NC(=O)[C@H](CC(C)C)NC(=O)[C@H](Cc1ccc(O)cc1)NC(=O)[C@H](CCCCN)NC(=O)[C@H](CO)NC(=O)[C@H](Cc1ccc(O)cc1)NC(=O)[C@H](CCC(=O)O)NC(=O)[C@H](CO)NC(=O)[C@@H](NC(=O)[C@H](Cc1ccccc1)NC(=O)[C@@H](NC(=O)[C@@H](O)Cc1ccccc1)[C@@H](C)O)[C@@H](C)O)C(C)C)C(=O)N[C@@H](CC(N)=O)C(=O)N[C@H](C(N)=O)[C@@H](C)O
Human glucagon receptor [2]
  IC50 (cAMP, inhibit 0.8 mM Glucagon): 84.4 nM

B3: [desHis^1, desPhe^6, hCys^9(SO3-), Phe^25, Leu^27] Glucagon-NH2 (peptide)
peptide: SQGTTS[Abu(4-SO3H)]YSKYLDSRRAQDFVQFLLNT-NH2
modifications: N-terminus assumed
SMILES: CC(C)C[C@H](NC(=O)[C@H](Cc1ccc(O)cc1)NC(=O)[C@H](CCCCN)NC(=O)[C@H](CO)NC(=O)[C@H](Cc1ccc(O)cc1)NC(=O)[C@H](CCS(=O)(=O)O)NC(=O)[C@H](CO)NC(=O)[C@@H](NC(=O)[C@@H](NC(=O)CNC(=O)[C@H](CCC(N)=O)NC(=O)[C@@H](N)CO)[C@@H](C)O)[C@@H](C)O)C(=O)N[C@@H](CC(=O)O)C(=O)N[C@@H](CO)C(=O)N[C@@H](CCCNC(=N)N)C(=O)N[C@@H](CCCNC(=N)N)C(=O)N[C@@H](C)C(=O)N[C@@H](CCC(N)=O)C(=O)N[C@@H](CC(=O)O)C(=O)N[C@@H](Cc1ccccc1)C(=O)N[C@H](C(=O)N[C@@H](CCC(N)=O)C(=O)N[C@@H](Cc1ccccc1)C(=O)N[C@@H](CC(C)C)C(=O)N[C@@H](CC(C)C)C(=O)N[C@@H](CC(N)=O)C(=O)N[C@H](C(N)=O)[C@@H](C)O)C(C)C
notes: His1 and Phe6 deleted; also called Cmpd; 5B
Human glucagon receptor [3]
  cAMP Induction EC50: 3210 nM
  cAMP Inhibition IC50: 9220 nM
Human glucagon receptor [4]
  IC50: 53.3 nM

## AEGTFTSEYSKYLDERRAKDFVQWLMDT-NH2 (lactam 15-19) [[A2E3, E9, E16K20(Lactam), D28]G(2-29)]
Human glucagon receptor [5]
  Glucagon IC50: 63 nM
Human glucagon receptor [6]
  Glucagon antagonism IC50 (inhibit 0.2-0.8 nM glucagon): 63.2 nM
Human glucagon receptor [7]
  Glucagon antagonism IC50 (inhibit 0.8 nM glucagon): 63.2 nM
Human glucagon receptor [8]
  Glucagon antagonism IC50 (inhibit 0.8 nM glucagon): 63.2 nM
Human glucagon receptor [9]
  Glucagon antagonism IC50 (inhibit 0.8 nM glucagon): 151 nM

## SQGTFTS[NSG‑2]YSKYLDSRRAQDFVQWLMNT-NH2 (reading uncertain, also called peptide no) [[(NSG-2)^9] Glucagon(aa2-29)-NH2]
Human glucagon receptor [10]
  IC50: 2350 nM

## SQGTFTS[NSG‑1]YSKYLDSRRAQDFVQWLMNT-NH2 (reading uncertain, also called peptide no) [[(NSG-1)^9] Glucagon(aa2-29)-NH2]
Human glucagon receptor [10]
  IC50: 983 nM

B4: [(CSA-1]^9] Glucagon(aa2-29)-NH2 (peptide)
peptide: SQGTFTS[CSA‑1]YSKYLDSRRAQDFVQWLMNT-NH2
modifications: N-terminus assumed
SMILES: CSCC[C@H](NC(=O)[C@H](CC(C)C)NC(=O)[C@H](Cc1c[nH]c2ccccc12)NC(=O)[C@H](CCC(N)=O)NC(=O)[C@@H](NC(=O)[C@H](Cc1ccccc1)NC(=O)[C@H](CC(=O)O)NC(=O)[C@H](CCC(N)=O)NC(=O)[C@H](C)NC(=O)[C@H](CCCNC(=N)N)NC(=O)[C@H](CCCNC(=N)N)NC(=O)[C@H](CO)NC(=O)[C@H](CC(=O)O)NC(=O)[C@H](CC(C)C)NC(=O)[C@H](Cc1ccc(O)cc1)NC(=O)[C@H](CCCCN)NC(=O)[C@H](CO)NC(=O)[C@H](Cc1ccc(O)cc1)NC(=O)[C@H](CSCC(=O)O)NC(=O)[C@H](CO)NC(=O)[C@@H](NC(=O)[C@H](Cc1ccccc1)NC(=O)[C@@H](NC(=O)CNC(=O)[C@H](CCC(N)=O)NC(=O)[C@@H](N)CO)[C@@H](C)O)[C@@H](C)O)C(C)C)C(=O)N[C@@H](CC(N)=O)C(=O)N[C@H](C(N)=O)[C@@H](C)O
notes: also called peptide no
Human glucagon receptor [10]
  IC50: 12.7 nM

## Ac-[PhLac]TSEYSKYLDSRRAQDFVQWLMNT-NH2 [[Ac-PLA^6, E^9]Glucagon(aa6-29)-NH2]
Human glucagon receptor [2]
  IC50 (cAMP, inhibit 0.8 mM Glucagon): 38.1 nM

## SQGTFTSXYSKYLDSRRAQDFVQWLMNT (homoglutamic acid (hGlu) at position 9; C-terminal amide, also called peptide no) [[hGlu^9] Glucagon(aa2-29)-NH2]
Human glucagon receptor [10]
  IC50: 8.1 nM

B5: [desHis^1, hCys^9(SO3-), Phe^25, Leu^27] Glucagon-NH2 (peptide)
peptide: SQGTFTS[Abu(4-SO3H)]YSKYLDSRRAQDFVQFLLNT-NH2
modifications: N-terminus assumed
SMILES: CC(C)C[C@H](NC(=O)[C@H](Cc1ccc(O)cc1)NC(=O)[C@H](CCCCN)NC(=O)[C@H](CO)NC(=O)[C@H](Cc1ccc(O)cc1)NC(=O)[C@H](CCS(=O)(=O)O)NC(=O)[C@H](CO)NC(=O)[C@@H](NC(=O)[C@H](Cc1ccccc1)NC(=O)[C@@H](NC(=O)CNC(=O)[C@H](CCC(N)=O)NC(=O)[C@@H](N)CO)[C@@H](C)O)[C@@H](C)O)C(=O)N[C@@H](CC(=O)O)C(=O)N[C@@H](CO)C(=O)N[C@@H](CCCNC(=N)N)C(=O)N[C@@H](CCCNC(=N)N)C(=O)N[C@@H](C)C(=O)N[C@@H](CCC(N)=O)C(=O)N[C@@H](CC(=O)O)C(=O)N[C@@H](Cc1ccccc1)C(=O)N[C@H](C(=O)N[C@@H](CCC(N)=O)C(=O)N[C@@H](Cc1ccccc1)C(=O)N[C@@H](CC(C)C)C(=O)N[C@@H](CC(C)C)C(=O)N[C@@H](CC(N)=O)C(=O)N[C@H](C(N)=O)[C@@H](C)O)C(C)C
notes: also called Cmpd; 4B
Human glucagon receptor [3]
  cAMP Induction EC50: 430 nM
Human glucagon receptor [4]
  IC50: 13.9 nM

## FTSEYSKYLDERRAQDFVQWLMNTGPSSGAPPPS (PLA at position 6; C-terminal amide) [[PLA6, E9, E16]G(6-39)]
[11]
  GLP-1 agonism EC50: 1760 nM
[12]
  Glucagon antagonism IC50 (inhibit 0.2-0.8 nM glucagon): 58.1 nM

## SQGTTSDYSKYLDSRRAQDFVQWLMNT-NH2 (His1 and Phe6 deleted; also called Cmpd) [[desHis^1, desPhe^6] Glucagon-NH2]
Human glucagon receptor [3]
  cAMP Induction EC50: 1180 nM
Human glucagon receptor [4]
  IC50: 130 nM

B6: [(CSA-2)^9] Glucagon(aa2-29)-NH2 (peptide)
peptide: SQGTFTS[CSA‑2]YSKYLDSRRAQDFVQWLMNT-NH2
modifications: N-terminus assumed
SMILES: CSCC[C@H](NC(=O)[C@H](CC(C)C)NC(=O)[C@H](Cc1c[nH]c2ccccc12)NC(=O)[C@H](CCC(N)=O)NC(=O)[C@@H](NC(=O)[C@H](Cc1ccccc1)NC(=O)[C@H](CC(=O)O)NC(=O)[C@H](CCC(N)=O)NC(=O)[C@H](C)NC(=O)[C@H](CCCNC(=N)N)NC(=O)[C@H](CCCNC(=N)N)NC(=O)[C@H](CO)NC(=O)[C@H](CC(=O)O)NC(=O)[C@H](CC(C)C)NC(=O)[C@H](Cc1ccc(O)cc1)NC(=O)[C@H](CCCCN)NC(=O)[C@H](CO)NC(=O)[C@H](Cc1ccc(O)cc1)NC(=O)[C@H](CSCCC(=O)O)NC(=O)[C@H](CO)NC(=O)[C@@H](NC(=O)[C@H](Cc1ccccc1)NC(=O)[C@@H](NC(=O)CNC(=O)[C@H](CCC(N)=O)NC(=O)[C@@H](N)CO)[C@@H](C)O)[C@@H](C)O)C(C)C)C(=O)N[C@@H](CC(N)=O)C(=O)N[C@H](C(N)=O)[C@@H](C)O
notes: also called peptide no
Human glucagon receptor [10]
  IC50: 13.3 nM

## HSQGTFTSDYARYLDARRAREFIKWLVRGRG [ANK2 (Bayer peptide)]
Human GLP-1 receptor [13]
  GLP-1 EC50: 0.28 nM
Human GLP-1 receptor [14]
  GLP-1 agonism EC50: 0.28 nM

B7: K40-chol G(6-40) (peptide)
peptide: FTSDYSKYLDERRAKDFVQWLMDTGPSSGAPPPSK
modifications: PLA at position 6; lactam bridge Glu16-Lys20; Lys40(COCH2CH2S-Chol) cholesterol conjugate; C-terminal amide
[11]
  GLP-1 agonism EC50: 47 nM
[12]
  Glucagon antagonism IC50 (inhibit 0.4 nM glucagon): 312 nM
